Assay results reported in paper PMC11407943, “Cdc14 phosphatases use an intramolecular pseudosubstrate motif to stimulate and regulate catalysis” (The Journal of Biological Chemistry, 2024).

B1: ScCdc14^1-374 (Saccharomyces cerevisiae S288C) (protein)
chain: MRRSVYLDNTIEFLRGRVYLGAYDYTPEDTDELVFFTVEDAIFYNSFHLDFGPMNIGHLYRFAVIFHEILNDPENANKAVVFYSSASTRQRANAACMLCCYMILVQAWTPHQVLQPLAQVDPPFMPFRDAGYSNADFEITIQDVVYGVWRAKEKGLIDLHSFNLESYEKYEHVEFGDFNVLTPDFIAFASPQEDHPKGYLATKSSHLNQPFKSVLNFFANNNVQLVVRLNSHLYNKKHFEDIGIQHLDLIFEDGTCPDLSIVKNFVGAAETIIKRGGKIAVHCKAGLGRTGCLIGAHLIYTYGFTANECIGFLRFIRPGMVVGPQQHWLYLHQNDFREWKYTTRISLKPSEAIGGLYPLISLEEYRLQKKKLKD
B2: ScCdc14^1-449 (Saccharomyces cerevisiae S288C) (protein)
chain: MRRSVYLDNTIEFLRGRVYLGAYDYTPEDTDELVFFTVEDAIFYNSFHLDFGPMNIGHLYRFAVIFHEILNDPENANKAVVFYSSASTRQRANAACMLCCYMILVQAWTPHQVLQPLAQVDPPFMPFRDAGYSNADFEITIQDVVYGVWRAKEKGLIDLHSFNLESYEKYEHVEFGDFNVLTPDFIAFASPQEDHPKGYLATKSSHLNQPFKSVLNFFANNNVQLVVRLNSHLYNKKHFEDIGIQHLDLIFEDGTCPDLSIVKNFVGAAETIIKRGGKIAVHCKAGLGRTGCLIGAHLIYTYGFTANECIGFLRFIRPGMVVGPQQHWLYLHQNDFREWKYTTRISLKPSEAIGGLYPLISLEEYRLQKKKLKDDKRVAQNNIEGELRDLTMTPPSNGHGALSARNSSQPSTANNGSNSFKSSAVPQTSPGQPRKGQNGSNTIEDINNN
B3: ScCdc14^Q432E (Saccharomyces cerevisiae S288C; Q432E) (protein)
chain: MRRSVYLDNTIEFLRGRVYLGAYDYTPEDTDELVFFTVEDAIFYNSFHLDFGPMNIGHLYRFAVIFHEILNDPENANKAVVFYSSASTRQRANAACMLCCYMILVQAWTPHQVLQPLAQVDPPFMPFRDAGYSNADFEITIQDVVYGVWRAKEKGLIDLHSFNLESYEKYEHVEFGDFNVLTPDFIAFASPQEDHPKGYLATKSSHLNQPFKSVLNFFANNNVQLVVRLNSHLYNKKHFEDIGIQHLDLIFEDGTCPDLSIVKNFVGAAETIIKRGGKIAVHCKAGLGRTGCLIGAHLIYTYGFTANECIGFLRFIRPGMVVGPQQHWLYLHQNDFREWKYTTRISLKPSEAIGGLYPLISLEEYRLQKKKLKDDKRVAQNNIEGELRDLTMTPPSNGHGALSARNSSQPSTANNGSNSFKSSAVPQTSPGEPRKGQNGSNTIEDINNN
B4: ScCdc14^P433A/K435A (Saccharomyces cerevisiae S288C; K435A/P433A) (protein)
chain: MRRSVYLDNTIEFLRGRVYLGAYDYTPEDTDELVFFTVEDAIFYNSFHLDFGPMNIGHLYRFAVIFHEILNDPENANKAVVFYSSASTRQRANAACMLCCYMILVQAWTPHQVLQPLAQVDPPFMPFRDAGYSNADFEITIQDVVYGVWRAKEKGLIDLHSFNLESYEKYEHVEFGDFNVLTPDFIAFASPQEDHPKGYLATKSSHLNQPFKSVLNFFANNNVQLVVRLNSHLYNKKHFEDIGIQHLDLIFEDGTCPDLSIVKNFVGAAETIIKRGGKIAVHCKAGLGRTGCLIGAHLIYTYGFTANECIGFLRFIRPGMVVGPQQHWLYLHQNDFREWKYTTRISLKPSEAIGGLYPLISLEEYRLQKKKLKDDKRVAQNNIEGELRDLTMTPPSNGHGALSARNSSQPSTANNGSNSFKSSAVPQTSPGQARAGQNGSNTIEDINNN
B5: ScCdc14^Q432A (Saccharomyces cerevisiae S288C; Q432A) (protein)
chain: MRRSVYLDNTIEFLRGRVYLGAYDYTPEDTDELVFFTVEDAIFYNSFHLDFGPMNIGHLYRFAVIFHEILNDPENANKAVVFYSSASTRQRANAACMLCCYMILVQAWTPHQVLQPLAQVDPPFMPFRDAGYSNADFEITIQDVVYGVWRAKEKGLIDLHSFNLESYEKYEHVEFGDFNVLTPDFIAFASPQEDHPKGYLATKSSHLNQPFKSVLNFFANNNVQLVVRLNSHLYNKKHFEDIGIQHLDLIFEDGTCPDLSIVKNFVGAAETIIKRGGKIAVHCKAGLGRTGCLIGAHLIYTYGFTANECIGFLRFIRPGMVVGPQQHWLYLHQNDFREWKYTTRISLKPSEAIGGLYPLISLEEYRLQKKKLKDDKRVAQNNIEGELRDLTMTPPSNGHGALSARNSSQPSTANNGSNSFKSSAVPQTSPGAPRKGQNGSNTIEDINNN
B6: ScCdc14^Q432N (Saccharomyces cerevisiae S288C; Q432N) (protein)
chain: MRRSVYLDNTIEFLRGRVYLGAYDYTPEDTDELVFFTVEDAIFYNSFHLDFGPMNIGHLYRFAVIFHEILNDPENANKAVVFYSSASTRQRANAACMLCCYMILVQAWTPHQVLQPLAQVDPPFMPFRDAGYSNADFEITIQDVVYGVWRAKEKGLIDLHSFNLESYEKYEHVEFGDFNVLTPDFIAFASPQEDHPKGYLATKSSHLNQPFKSVLNFFANNNVQLVVRLNSHLYNKKHFEDIGIQHLDLIFEDGTCPDLSIVKNFVGAAETIIKRGGKIAVHCKAGLGRTGCLIGAHLIYTYGFTANECIGFLRFIRPGMVVGPQQHWLYLHQNDFREWKYTTRISLKPSEAIGGLYPLISLEEYRLQKKKLKDDKRVAQNNIEGELRDLTMTPPSNGHGALSARNSSQPSTANNGSNSFKSSAVPQTSPGNPRKGQNGSNTIEDINNN
B7: hCdc14B^1-411 (Homo sapiens) (protein)
chain: DRLCFAILYSRPKSASNVHYFSIDNELEYENFYADFGPLNLAMVYRYCCKINKKLKSITMLRKKIVHFTGSDQRKQANAAFLVGCYMVIYLGRTPEEAYRILIFGETSYIPFRDAAYGSCNFYITLLDCFHAVKKAMQYGFLNFNSFNLDEYEHYEKAENGDLNWIIPDRFIAFCGPHSRARLESGYHQHSPETYIQYFKNHNVTTIIRLNKRMYDAKRFTDAGFDHHDLFFADGSTPTDAIVKEFLDICENAEGAIAVHCKAGLGRTGTLIACYIMKHYRMTAAETIAWVRICRPGSVIGPQQQFLVMKQTNLWLEGDYFRQKLKGQENGQHRAAFSKLLSGVDDISINGVENQDQQEPEPYSDDDEINGVTQGDRLRALKSRRQSKTNAIPLT
notes: codons 1-411; N-terminal GST; expressed in E. coli
B8: hCdc14B^Q390A (Homo sapiens; Q390A) (protein)
chain: MSREGAGAALVAEVIKDRLCFAILYSRPKSASNVHYFSIDNELEYENFYADFGPLNLAMVYRYCCKINKKLKSITMLRKKIVHFTGSDQRKQANAAFLVGCYMVIYLGRTPEEAYRILIFGETSYIPFRDAAYGSCNFYITLLDCFHAVKKAMQYGFLNFNSFNLDEYEHYEKAENGDLNWIIPDRFIAFCGPHSRARLESGYHQHSPETYIQYFKNHNVTTIIRLNKRMYDAKRFTDAGFDHHDLFFADGSTPTDAIVKEFLDICENAEGAIAVHCKAGLGRTGTLIACYIMKHYRMTAAETIAWVRICRPGSVIGPQQQFLVMKQTNLWLEGDYFRQKLKGQENGQHRAAFSKLLSGVDDISINGVENQDQQEPEPYSDDDEINGVTAGDRLRALKSRRQSKTNAIPLT
notes: as for B7
B9: ScCdc14^S429E (Saccharomyces cerevisiae S288C; S429E) (protein)
chain: MRRSVYLDNTIEFLRGRVYLGAYDYTPEDTDELVFFTVEDAIFYNSFHLDFGPMNIGHLYRFAVIFHEILNDPENANKAVVFYSSASTRQRANAACMLCCYMILVQAWTPHQVLQPLAQVDPPFMPFRDAGYSNADFEITIQDVVYGVWRAKEKGLIDLHSFNLESYEKYEHVEFGDFNVLTPDFIAFASPQEDHPKGYLATKSSHLNQPFKSVLNFFANNNVQLVVRLNSHLYNKKHFEDIGIQHLDLIFEDGTCPDLSIVKNFVGAAETIIKRGGKIAVHCKAGLGRTGCLIGAHLIYTYGFTANECIGFLRFIRPGMVVGPQQHWLYLHQNDFREWKYTTRISLKPSEAIGGLYPLISLEEYRLQKKKLKDDKRVAQNNIEGELRDLTMTPPSNGHGALSARNSSQPSTANNGSNSFKSSAVPQTEPGQPRKGQNGSNTIEDINNN

These proteins were tested on Cc1cc(=O)oc2c(F)c(OP(=O)(O)O)c(F)cc12 (assay: not given). Conditions: pH 7.5; 30.0 °C.
Assay type: biochemical
Excerpt: Enzym e kcat (sec-1) KM (µM)
B1 was tested, and the Km was 0.76 µM.
Protein B2 has a Km of 8.4 µM.
B3 was tested, and the Km was 1.11 µM.
B4 gave a Km of 1.0 µM.
B5 was tested, and the Km was 0.72 µM.
In the case of B6, the Km is reported as 0.92 µM.
B7 showed a Km of 46 µM.
B8 showed a Km of 2.88 µM.

The proteins below were run on Cc1cc(=O)oc2c(F)c(OP(=O)(O)O)c(F)cc12 (assay: purified protein, by the assay type). Conditions: pH 7.5; 30.0 °C.
Description: Data from velocity versus substrate concentration plots were fit with the Michaelis–Menten equation in GraphPad Prism (https://www.graphpad.com/) to determine steady-state kinetic parameters kcat and KM. For trans peptide stimulation assays, DiFMUP was used at a single concentration well above the measured KM for each enzyme. […] (where pS is phosphoSer), were assayed in Cdc14 reaction buffer with Biomol Green (Enzo Life Science) detection of released inorganic phosphate as previously described ([29]). Data were fit with a modified Michaelis–Menten equation including a substrate inhibition term in Prism.
After removing the Cdk1-bound affinity resin, we measured effects on Cdc14 steady-state kinetic parameters with DiFMUP.
Values are means of at least six independent measurements and error bars are SDs.
In the case of B2, the Km is reported as 25 µM.
Protein B9 has a Km of 3.3 µM.
